# Data from patent publication US20220048947A1.
# Where no end group is shown, it is not given here.
# How the values were obtained:
# [1] = biological target: NbALFA^ST (NbALFA clone 1G5); assay: peptide elution from NbALFA^ST resin; tag position N
# [2] = biological target: NbALFA^ST (NbALFA clone 1G5); assay: peptide elution from NbALFA^ST resin; tag position M
# Sequence of NbALFA^ST (NbALFA clone 1G5) (VHH, as listed by the source): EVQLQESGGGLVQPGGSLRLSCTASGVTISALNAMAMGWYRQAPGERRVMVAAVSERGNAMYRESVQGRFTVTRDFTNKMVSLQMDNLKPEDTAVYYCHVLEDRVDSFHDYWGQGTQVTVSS
Binder,t1/2 [1],t1/2 [2]
MSAVEEELRRRLSPS (not fully specified (residue 15); printed as MSAVEEELRRRLSPs) […s (SEQ ID NO: 111)],< 2 min,–
DSGRLEQEIRRELSPG [ds…g (SEQ ID NO: 103)],–,< 2 min
SDSGEELRRRLSPG [sdSG--…g (SEQ ID NO: 93)],–,< 2 min
SDSGAEEELRRRLSPG [sd…g (SEQ ID NO: 98)],–,< 2 min
DSGPLEQELRRRLPTA [ds…a (SEQ ID NO: 107)],–,< 2 min
DSGRLEQEIRRQLSPG [ds…g (SEQ ID NO: 102)],–,< 2 min
DSGRLEEELRRRSPG [ds…-SPg (SEQ ID NO: 94)],–,< 2 min
DSGALEQEIRRRLSPG [ds…g (SEQ ID NO: 100)],–,< 2 min
DSGRLEEELRRSPG [ds…--SPg (SEQ ID NO: 95)],–,< 2 min
DSGRLEQEIRRALSPG [ds…g (SEQ ID NO: 101)],–,< 2 min
SDSGEEELRRRLSPG [sdSG-…g (SEQ ID NO: 92)],–,< 2 min
DSGRLEEELRSPG [dsGRLEEELR---SPg (SEQ ID NO: 96)],–,< 2 min
PDSGLEQELRRRLPTA [pd…a (SEQ ID NO: 104)],–,< 2 min
DPSGLEQELRRRLPTA [dp…a (SEQ ID NO: 105)],–,< 2 min
DSGALEEELRRRLSPG [ds…g (SEQ ID NO: 99)],–,< 2 min
SDSGLEEEARRRLSPG [sd…g (SEQ ID NO: 97)],–,< 2 min
"MPSAVEEELRRRLSPS (not fully specified (residues 2, 16); printed as MpSAVEEELRRRLSPs) [Mp…s (SEQ ID NO: 112)]",< 2 min,–
DSPGLEQELRRRLPTA [ds…a (SEQ ID NO: 106)],–,< 2 min
"MSSAVEEELRRRLSPS (not fully specified (residues 2, 16); printed as MsSAVEEELRRRLSPs) [Ms…s (SEQ ID NO: 113)]",< 2 min,–
MSAVEEELRRRLSPS (not fully specified (residue 15); printed as MSAVEEELRRRLSPs) […s (SEQ ID NO: 109)],< 2 min,–
